# What was measured:
# FGFR3 = FGFR3 (UniProt P22607); assay: phosphorylation enrichment, bacterial display (enrichment ratio); higher = better substrate or ligand; peptides without Tyr show the background
# FGFR1 = FGFR1 (UniProt P11362); assay: as above
# EPHB2 = EPHB2 (UniProt P29323); assay: as above
# EPHB1 = EPHB1 (UniProt P54762); assay: as above
# Hck = Hck (UniProt P08631); assay: as above
# Fyn = Fyn (UniProt P06241); assay: as above
# Fes = Fes (UniProt P07332); assay: as above
# Fer (mouse) = assay: as above
# MERTK = MERTK (UniProt Q12866); assay: as above
# AncSZ = assay: as above
# c-Abl (mouse) = assay: as above
# c-Src = assay: as above
# Jak2 = Jak2 (UniProt O60674); assay: as above
# SHP2-C SH2 = assay: SH2 binding enrichment of the phosphorylated peptide, bacterial display (enrichment ratio); higher = better substrate or ligand; peptides without Tyr show the background
# Grb2 SH2 = Grb2 SH2 (UniProt P62993); assay: as above
# c-Src SH2 = assay: as above
# 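Throughout, for SH2 binding enrichment of the phosphorylated peptide, bacterial display: peptide library displayed on the E. coli surface as eCPX fusions, selected cells deep-sequenced, score is each peptide's frequency after selection divided by its frequency in the input.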
# 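Throughout, for phosphorylation enrichment, bacterial display: 11-residue human phosphosite peptides and single-mutation variants displayed on the E. coli surface, counted by deep sequencing, each peptide's frequency after selection divided by its frequency in the unselected input library; frequency after pTyr selection over input frequency; kinase dosed for 20-30% of maximal phosphorylation in three min.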
# Chain of Jak2 (O60674 whole entry, looked up): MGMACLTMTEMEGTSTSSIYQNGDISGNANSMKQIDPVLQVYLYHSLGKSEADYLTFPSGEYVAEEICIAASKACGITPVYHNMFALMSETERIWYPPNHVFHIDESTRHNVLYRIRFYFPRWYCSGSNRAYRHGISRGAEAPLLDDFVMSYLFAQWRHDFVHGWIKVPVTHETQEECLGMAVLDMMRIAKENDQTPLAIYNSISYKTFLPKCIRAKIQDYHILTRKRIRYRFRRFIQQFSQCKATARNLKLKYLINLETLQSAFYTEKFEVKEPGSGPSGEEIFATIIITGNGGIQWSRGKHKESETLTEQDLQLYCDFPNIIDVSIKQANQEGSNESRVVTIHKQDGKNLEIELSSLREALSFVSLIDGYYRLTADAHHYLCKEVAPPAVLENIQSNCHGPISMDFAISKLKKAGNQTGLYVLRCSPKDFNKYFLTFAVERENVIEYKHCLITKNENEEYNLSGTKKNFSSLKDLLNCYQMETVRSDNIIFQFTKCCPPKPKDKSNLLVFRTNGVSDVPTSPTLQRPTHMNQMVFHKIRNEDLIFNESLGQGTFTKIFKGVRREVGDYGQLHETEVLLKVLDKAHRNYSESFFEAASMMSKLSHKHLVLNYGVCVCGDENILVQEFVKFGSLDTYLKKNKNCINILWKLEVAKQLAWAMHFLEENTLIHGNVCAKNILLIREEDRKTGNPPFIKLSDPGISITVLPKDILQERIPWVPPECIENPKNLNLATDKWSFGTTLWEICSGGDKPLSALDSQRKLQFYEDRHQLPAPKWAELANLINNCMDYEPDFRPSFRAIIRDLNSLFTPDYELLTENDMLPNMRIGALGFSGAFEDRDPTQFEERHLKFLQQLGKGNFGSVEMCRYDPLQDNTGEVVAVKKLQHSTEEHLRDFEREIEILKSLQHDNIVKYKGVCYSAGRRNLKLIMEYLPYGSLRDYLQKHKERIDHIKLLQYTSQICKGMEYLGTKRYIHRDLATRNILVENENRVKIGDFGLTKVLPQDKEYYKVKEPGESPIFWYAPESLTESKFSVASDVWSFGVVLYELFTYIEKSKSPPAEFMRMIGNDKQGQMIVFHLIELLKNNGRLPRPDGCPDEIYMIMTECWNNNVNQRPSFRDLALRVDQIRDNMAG
# Chain of MERTK (Q12866 whole entry, looked up): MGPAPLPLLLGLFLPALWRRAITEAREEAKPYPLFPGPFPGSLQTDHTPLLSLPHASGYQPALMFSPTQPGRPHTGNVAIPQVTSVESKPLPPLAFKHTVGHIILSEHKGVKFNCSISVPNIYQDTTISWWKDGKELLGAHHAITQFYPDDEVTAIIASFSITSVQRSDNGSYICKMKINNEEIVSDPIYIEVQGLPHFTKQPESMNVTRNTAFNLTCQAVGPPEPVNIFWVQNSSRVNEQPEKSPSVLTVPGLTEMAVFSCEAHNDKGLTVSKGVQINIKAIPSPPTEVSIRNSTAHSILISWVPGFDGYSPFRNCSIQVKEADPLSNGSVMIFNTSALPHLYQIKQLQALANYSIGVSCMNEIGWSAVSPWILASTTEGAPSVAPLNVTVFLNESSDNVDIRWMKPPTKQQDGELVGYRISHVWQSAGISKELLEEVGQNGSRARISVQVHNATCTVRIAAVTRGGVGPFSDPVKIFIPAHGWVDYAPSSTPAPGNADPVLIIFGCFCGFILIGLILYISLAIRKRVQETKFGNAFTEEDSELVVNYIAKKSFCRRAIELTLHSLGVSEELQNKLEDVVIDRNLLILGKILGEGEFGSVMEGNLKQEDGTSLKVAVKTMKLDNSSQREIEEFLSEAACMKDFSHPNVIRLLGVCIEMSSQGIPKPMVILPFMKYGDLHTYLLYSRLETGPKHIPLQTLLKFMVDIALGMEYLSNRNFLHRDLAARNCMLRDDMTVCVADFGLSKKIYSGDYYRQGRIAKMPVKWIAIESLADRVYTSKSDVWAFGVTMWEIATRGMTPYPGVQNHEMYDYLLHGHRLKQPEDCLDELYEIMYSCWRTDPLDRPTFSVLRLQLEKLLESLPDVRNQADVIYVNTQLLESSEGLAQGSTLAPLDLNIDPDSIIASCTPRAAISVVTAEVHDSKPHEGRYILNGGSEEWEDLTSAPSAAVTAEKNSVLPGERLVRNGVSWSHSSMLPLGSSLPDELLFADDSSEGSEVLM
# Chain of Grb2 SH2 (P62993 whole entry, looked up): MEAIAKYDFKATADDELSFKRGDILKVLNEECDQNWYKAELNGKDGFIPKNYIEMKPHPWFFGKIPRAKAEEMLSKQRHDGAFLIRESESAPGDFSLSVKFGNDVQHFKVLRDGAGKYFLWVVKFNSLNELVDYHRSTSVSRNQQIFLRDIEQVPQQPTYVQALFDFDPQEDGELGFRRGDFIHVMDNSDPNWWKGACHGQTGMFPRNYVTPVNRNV
# Chain of Fyn (P06241 whole entry, looked up): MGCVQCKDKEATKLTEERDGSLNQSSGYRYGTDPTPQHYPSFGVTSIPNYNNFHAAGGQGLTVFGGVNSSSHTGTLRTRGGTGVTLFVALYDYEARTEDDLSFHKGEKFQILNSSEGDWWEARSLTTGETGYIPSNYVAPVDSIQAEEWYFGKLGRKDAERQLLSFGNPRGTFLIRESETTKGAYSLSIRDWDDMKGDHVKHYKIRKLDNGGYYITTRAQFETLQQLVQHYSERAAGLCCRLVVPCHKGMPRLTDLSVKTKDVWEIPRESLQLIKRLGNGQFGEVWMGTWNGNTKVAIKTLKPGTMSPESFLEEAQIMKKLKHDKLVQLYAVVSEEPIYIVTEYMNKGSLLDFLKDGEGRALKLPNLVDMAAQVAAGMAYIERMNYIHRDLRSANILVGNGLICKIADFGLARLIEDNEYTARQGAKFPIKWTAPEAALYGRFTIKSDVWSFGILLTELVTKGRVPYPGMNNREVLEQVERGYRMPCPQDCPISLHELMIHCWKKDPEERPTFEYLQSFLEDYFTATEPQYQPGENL
# Chain of FGFR3 (P22607 whole entry, looked up): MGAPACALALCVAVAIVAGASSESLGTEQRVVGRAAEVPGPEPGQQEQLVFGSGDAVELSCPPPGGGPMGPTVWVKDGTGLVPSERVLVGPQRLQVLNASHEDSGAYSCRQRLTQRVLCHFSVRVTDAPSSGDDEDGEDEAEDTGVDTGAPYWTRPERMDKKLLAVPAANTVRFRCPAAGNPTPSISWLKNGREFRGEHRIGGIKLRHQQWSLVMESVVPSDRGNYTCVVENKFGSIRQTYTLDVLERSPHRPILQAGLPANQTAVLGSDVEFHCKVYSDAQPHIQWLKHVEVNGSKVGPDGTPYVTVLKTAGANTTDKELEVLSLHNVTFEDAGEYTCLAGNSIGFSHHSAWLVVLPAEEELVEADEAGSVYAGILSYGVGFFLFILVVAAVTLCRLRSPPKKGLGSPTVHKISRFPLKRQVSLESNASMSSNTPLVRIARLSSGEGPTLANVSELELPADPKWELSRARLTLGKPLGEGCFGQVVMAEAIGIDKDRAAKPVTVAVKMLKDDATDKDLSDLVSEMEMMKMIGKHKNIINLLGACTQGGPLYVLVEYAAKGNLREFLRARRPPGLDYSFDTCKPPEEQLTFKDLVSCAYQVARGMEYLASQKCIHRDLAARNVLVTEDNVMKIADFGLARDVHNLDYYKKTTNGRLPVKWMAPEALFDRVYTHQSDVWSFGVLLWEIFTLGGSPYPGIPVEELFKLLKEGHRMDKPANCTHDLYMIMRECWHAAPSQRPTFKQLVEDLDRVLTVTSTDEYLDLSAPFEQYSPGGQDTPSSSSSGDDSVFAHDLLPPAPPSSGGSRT
# Chain of EPHB2 (P29323 whole entry, looked up): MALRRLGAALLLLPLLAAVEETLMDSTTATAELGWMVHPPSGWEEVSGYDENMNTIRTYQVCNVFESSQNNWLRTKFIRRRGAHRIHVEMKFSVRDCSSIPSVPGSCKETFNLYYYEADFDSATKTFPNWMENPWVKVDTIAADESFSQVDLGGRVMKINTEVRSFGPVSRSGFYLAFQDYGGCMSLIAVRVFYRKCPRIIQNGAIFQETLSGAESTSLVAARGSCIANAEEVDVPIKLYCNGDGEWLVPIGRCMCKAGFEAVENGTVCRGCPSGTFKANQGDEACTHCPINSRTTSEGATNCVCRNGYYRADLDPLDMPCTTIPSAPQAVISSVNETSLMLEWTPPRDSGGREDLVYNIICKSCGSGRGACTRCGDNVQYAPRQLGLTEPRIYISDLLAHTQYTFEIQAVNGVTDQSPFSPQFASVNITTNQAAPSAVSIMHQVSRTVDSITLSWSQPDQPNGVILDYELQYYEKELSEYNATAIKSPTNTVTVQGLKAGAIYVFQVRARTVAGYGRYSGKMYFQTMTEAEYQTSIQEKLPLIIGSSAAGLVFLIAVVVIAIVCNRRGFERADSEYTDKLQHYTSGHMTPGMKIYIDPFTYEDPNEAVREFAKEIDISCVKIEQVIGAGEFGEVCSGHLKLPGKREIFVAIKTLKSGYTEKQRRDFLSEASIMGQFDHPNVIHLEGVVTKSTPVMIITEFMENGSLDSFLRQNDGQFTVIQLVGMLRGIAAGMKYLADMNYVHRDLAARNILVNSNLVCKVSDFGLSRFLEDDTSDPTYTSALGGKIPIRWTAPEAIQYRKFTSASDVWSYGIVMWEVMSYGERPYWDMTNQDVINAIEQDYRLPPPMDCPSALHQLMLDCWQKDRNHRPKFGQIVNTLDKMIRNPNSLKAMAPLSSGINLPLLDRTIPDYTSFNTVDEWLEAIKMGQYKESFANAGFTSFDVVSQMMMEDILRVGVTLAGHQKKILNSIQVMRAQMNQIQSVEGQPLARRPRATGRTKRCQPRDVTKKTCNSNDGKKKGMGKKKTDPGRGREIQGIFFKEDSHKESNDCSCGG
Sequence,phosphorylation enrichment (FGFR3),phosphorylation enrichment (FGFR1),phosphorylation enrichment (EPHB2),phosphorylation enrichment (EPHB1),phosphorylation enrichment (Hck),phosphorylation enrichment (Fyn),phosphorylation enrichment (Fes),phosphorylation enrichment (Fer (mouse)),phosphorylation enrichment (MERTK),phosphorylation enrichment (AncSZ),phosphorylation enrichment (c-Abl (mouse)),phosphorylation enrichment (c-Src),phosphorylation enrichment (Jak2),SH2 binding enrichment (SHP2-C SH2),SH2 binding enrichment (Grb2 SH2),SH2 binding enrichment (c-Src SH2)
QTPVLYAMLYH [MPZ_Y220_D224Y],4.53,5.59,6.54,9.9,5.44,4.4,1.43,8.03,8.33,1.1,2.58,3.4,1.89,1.05,0.917,0.44
QTSTDYDIRFY [CSNK2A1_Y131_L128S],1.04,1.08,1.36,1.22,0.89,0.981,1.86,0.844,0.869,1.46,1.2,0.785,1.47,0.625,0.707,0.36
QVKEQYQDVPM [PKP2_Y659_K654Q],0.914,0.835,0.762,0.555,0.701,0.65,1.98,0.86,0.565,1.15,2.19,0.573,1.12,0.752,0.945,0.883
QVQQIYSDSDL [MIB1_Y376_R371Q],0.932,0.85,2.35,1.49,3.84,6.18,1.88,7.33,4.04,1.3,1.09,5.36,1.05,0.836,0.965,0.573
QYPDIYAREEV [CRX_Y67_V66I],1.41,1.23,1.02,1.63,2.6,1.84,2.14,1.29,1.48,3.09,2.12,1.54,2.02,0.299,0.687,0.552
QYQEKYKQVEQ [HCN4_Y531],1.3,1.17,0.721,0.908,0.579,0.821,1.12,0.576,0.375,1.44,0.493,0.491,0.858,0.971,0.958,0.743
RAIGYYSATSK [FAM120A_Y328],0.453,0.438,0.515,0.622,0.37,0.502,0.631,0.563,1.17,0.765,0.639,0.593,0.73,1.16,1.24,1.83
RAQIRYAQEHD [NSD1_Y1987_R1984Q],0.768,0.507,0.575,0.458,0.667,0.633,0.816,0.56,0.912,1.72,0.889,0.847,0.911,0.725,1.13,0.409
RARPPYTVAAD [ANKZF1_Y572],0.458,0.39,0.378,0.4,0.45,0.35,0.591,0.443,0.418,0.551,0.466,0.349,0.58,1.14,1.27,0.933
RCLKDYGEFEV [GINS1_Y156],0.82,0.399,0.626,0.5,0.635,0.677,1.13,1.16,0.524,1.1,1.12,1.19,1.45,0.888,0.979,0.685
RDLTDYLMKIL [ACTA1_Y190],0.896,0.539,0.529,0.58,0.551,0.554,1.21,0.581,0.477,1.09,0.791,0.613,1.16,1.37,1.43,1.15
REEKNYKHKET [BCLAF1_Y459_L461H],0.431,0.635,0.55,0.422,0.53,0.436,1.45,0.647,0.688,0.829,0.917,0.741,0.571,0.46,0.93,0.624
RELSWYRGQRP [HESX1_Y106_R109Q],0.541,0.506,0.661,0.581,0.552,0.505,0.901,0.376,0.488,0.962,0.38,0.401,0.956,0.785,1.78,0.597
RETSLYKACER [ASB2_Y162_P160S],0.558,0.548,0.609,0.59,0.9,0.481,0.954,0.762,0.719,1,0.85,0.939,1.31,0.799,1.14,0.857
RFGKVYKAHLF [ROR2_Y488_G490A],0.733,0.72,0.583,0.476,0.645,0.57,0.604,0.846,0.509,0.622,0.594,0.886,0.39,0.668,1.03,0.613
RFLERYIYNRQ [HLA-DPB1_Y57_E62Q],0.805,0.854,0.907,1.04,0.786,0.813,1.06,0.655,0.732,1.01,0.811,0.768,0.796,1.2,0.919,0.699
RFLKDYGEFEV [GINS1_Y156_C152Y_YF],0.877,0.582,0.569,0.497,0.695,0.85,1.39,0.63,0.778,1.04,0.835,1.07,1.13,0.749,1.26,0.43

Sequence,phosphorylation enrichment (FGFR3),phosphorylation enrichment (FGFR1),phosphorylation enrichment (EPHB2),phosphorylation enrichment (EPHB1),phosphorylation enrichment (Hck),phosphorylation enrichment (Fyn),phosphorylation enrichment (Fes),phosphorylation enrichment (Fer (mouse)),phosphorylation enrichment (MERTK),phosphorylation enrichment (AncSZ),phosphorylation enrichment (c-Abl (mouse)),phosphorylation enrichment (c-Src),phosphorylation enrichment (Jak2),SH2 binding enrichment (SHP2-C SH2),SH2 binding enrichment (Grb2 SH2),SH2 binding enrichment (c-Src SH2)
RFLTRYIFNRE [HLA-DQB1_Y62_V59L_YF],0.674,0.408,0.567,0.624,0.452,0.606,1.17,0.897,0.578,1,0.631,0.706,1.29,1.17,0.67,0.593
RGDCMYASLLG [AR_Y269_P271S],1.52,1.45,1.49,2.43,7.26,6.63,1.39,1.1,4.87,1.25,1.42,6,1.03,1.99,1.26,1.12
RGEAVYSRDCV [XPC_Y676],1.01,0.718,0.655,0.764,2.93,2.95,1.2,0.472,0.857,0.997,0.692,2.34,1.01,0.751,0.788,0.522
RGVTRYIFNRE [HLA-DQB1_Y62_Y58G_YF],1.27,0.757,0.766,1,1.08,0.982,1.85,0.886,1.59,2.22,1.34,1.38,1.74,0.512,0.821,0.494
RHLREYQDLLN [DES_Y388],0.641,0.61,1.12,0.621,0.464,0.483,1.19,0.533,0.491,0.93,0.888,0.41,0.807,0.872,1.25,2.29
RHTRSYDFTEG [FGF7_Y56_M59T_YF],0.382,0.411,0.492,0.377,0.387,0.366,0.695,0.399,0.35,0.557,0.563,0.351,0.444,0.611,0.88,0.427
RHYVYYYSYLL [PTEN_Y177_R173H],6.42,7.03,2.13,2.69,2.49,1.59,2.26,1.37,5.71,1.89,1.35,2.18,3.46,0.906,1.03,0.536
RIAFQYGVTDL [MYBPC3_Y340],1.08,0.45,0.627,0.709,0.647,0.522,1.28,0.558,0.514,1.41,0.992,0.879,1.47,0.815,0.93,0.535
RIDPDYMGRVR [IGSF9_Y81_V82M],0.656,0.344,0.367,0.35,0.369,0.487,0.572,0.4,0.442,0.649,0.585,0.466,0.643,0.629,1.03,0.577
RIFDFYSARKT [STOX1_Y858_A863T_YF],0.496,0.519,0.553,0.467,1.37,0.485,0.833,0.311,0.595,0.715,0.491,0.624,0.417,0.907,0.977,0.517
RIFDYYSARKA [STOX1_Y858],0.612,0.614,0.656,0.499,0.792,0.713,1.28,0.7,0.582,0.959,1.08,1.1,1.16,0.648,1.48,0.469
RKGGSYSQAAS [HLA-A_Y344_T345S],0.567,0.523,0.491,0.498,0.38,0.537,0.625,0.294,0.656,0.599,0.738,0.741,0.401,0.836,0.95,0.542
RKPDIYERLAS [MCM4_Y459],0.798,0.671,0.903,0.927,4.52,0.99,1.2,0.943,1.65,0.846,0.901,2.04,0.702,0.71,0.734,0.643
RLEGVYGNNID [PTEN_Y46_R47G],0.381,0.485,0.311,0.452,0.94,1.57,0.603,0.621,0.657,0.404,0.384,1.26,0.557,0.444,0.713,0.408
RLGLQYSQGLV [EIF2B4_Y214],0.851,0.853,0.725,0.676,0.588,0.732,1.31,0.654,0.365,0.876,1.16,0.683,1.19,0.553,0.955,0.452
RLLVVYPWTKR [HBB_Y36_Q40K],0.613,0.694,0.678,0.418,0.547,0.485,0.829,0.45,0.612,0.735,0.602,0.583,0.475,0.812,0.951,0.447

# Reference: the supplement of paper PMC10065799, “High-throughput profiling of sequence recognition by tyrosine kinases and SH2 domains using bacterial peptide display” (eLife, 2023)
